Data taken from patent US20050196753A1, “Human coactivator-associated arginine methyltransferase 1 (hCARM1)” (priority 2002, published 2005).

Columns and labels:
Histone H3 = test: Methylation assay: methylating activity of purified hCARM1; format: biochemical; settings: increasing amounts of purified enzyme, constant recombinant Histone H3 (FIG. 2)
Method: Methylation assay protocol: Reactions were performed in IX methylation buffer containing 20 mM Tris.HCl, pH 8.0, 200 mM NaCl and 0.4 mM EDTA. Reactions were assembled with 2.5 ug of Histone H3 and increasing amounts of hCARM1 (0.25 ug, 0.5 ug, 1.25 ug, 2.5 ug, 3.75 ug, 5 ug, or 7.5 ug). A mock reaction where hCARM1 was omitted was used as the negative control. Reactions were incubated at 30° C. for 1 hr. prior to loading on a 10-20% gradient SDS-PAGE. The gel was fixed, dried and exposed to film.
A methylation reaction was performed in order to evaluate whether the cloned full-length hCARM1 had methylating activity. Mouse CARM1 has been previously shown to specifically methylate Histone H3 in vitro and in vivo.

[1] = tested on: ER dependent promoter reporter in T47D cells; test: ER dependent luciferase reporter assay in transfected T47D cells; format: cell-based, human; settings: hCARM1 co-transfected with GRIP-1 and ER, compared to GRIP-1 and ER alone
Method: Transfection protocol: Cells were plated in 12 well-dishes and allowed to adhere and grow overnight such that they were 80% confluent at the time of transfection. Tranfections were performed in triplicate using Lipofectamine 2000 (Gibco) and OptiMEM media. Total amount of DNA transfected was held constant within experiments. Six hrs. post transfection the Lipofectamine-DNA mix was removed and replaced with fresh media containing 10% serum. Hormone (dihydrotestosterone or estradiol) was added at this time and reporter activation measured after 24 hr.
Mouse CARM1 has been implicated as a coactivator of the androgen and estrogen receptor mediated signaling pathways along with the well-known steroid coactivator GRIP-1. The contribution, if any, of the human clone to these pathways was investigated. […] Thus, antagonizing endogenous CARM1 is deleterious to hormone dependent activation by endogeous ER.

B1: hCARM1: cloned full-length human CARM1, produced in and purified from baculovirus infected insect cells; transfected as cDNA in cell assays (protein, UniProt Q86X55 1-608, looked up)
chain: MAAAAAAVGPGAGGAGSAVPGGAGPCATVSVFPGARLLTIGDANGEIQRHAEQQALRLEVRAGPDSAGIALYSHEDVCVFKCSVSRETECSRVGKQSFIITLGCNSVLIQFATPNDFCSFYNILKTCRGHTLERSVFSERTEESSAVQYFQFYGYLSQQQNMMQDYVRTGTYQRAILQNHTDFKDKIVLDVGCGSGILSFFAAQAGARKIYAVEASTMAQHAEVLVKSNNLTDRIVVIPGKVEEVSLPEQVDIIISEPMGYMLFNERMLESYLHAKKYLKPSGNMFPTIGDVHLAPFTDEQLYMEQFTKANFWYQPSFHGVDLSALRGAAVDEYFRQPVVDTFDIRILMAKSVKYTVNFLEAKEGDLHRIEIPFKFHMLHSGLVHGLAFWFDVAFIGSIMTVWLSTAPTEPLTHWYQVRCLFQSPLFAKAGDTLSGTCLLIANKRQSYDISIVAQVDQTGSKSSNLLDLKNPFFRYTGTTPSPPPGSHYTSPSENMWNTGSTYNLSSGMAVAGMPTAYDLSSVIASGSSVGHNNLIPLANTGIVNHTHSRMGSIMSTGIVQGSSGAQGSGGGSTSAHYAVNSQFTMGGPAISMASPMSIPTNTMHYGS
modifications: full-length
notes: cloned full-length human CARM1, produced in and purified from baculovirus infected insect cells; transfected as cDNA in cell assays
methylation of Histone H3 by hCARM1 (Histone H3): methylates Histone H3 efficiently | estradiol mediated induction of ER dependent luciferase reporter [1]: concentration dependent increase
